± gives the standard deviation of the averaged measurements.
B1: library; a variant is named by its letters at N, in order (parent)
chain: AATGTTGTTGATGCAACCATAAAGTGATATTTAATAATTATTTATAATCAGCAACTTAACCACAAAACAACCATATATTGATATNTCACAAAACAACCATAANTTGATATTTTTGTGAATCGAGTATTTCAGCAAAACTACTGCAGTAAGAA

Legend:
[1] = variants of: B1; assay: relative integration efficiency (T-LR orientation) vs wild-type transposon end (log2 (normalized fold change)); transposon end mutated: left end; higher = more efficient transposition; settings: with VchCAST RNA-guided transposition machinery (E. coli BL21(DE3) host, lacZ target)
Protocol: (§1)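 Pooled, barcoded VchCAST (Tn6677) mini-transposon donor libraries; each variable transposon-end sequence sits in a fixed pDonor mini-transposon context (10-bp barcode and cargo not included). Left- or right-end libraries were co-transformed with pEffector (TniQ-Cascade, TnsABC, lacZ crRNA, T7, 0.1 mM IPTG) into E. coli BL21(DE3) and grown 18 h at 37 C. T-LR and T-RL junction amplicons were sequenced; output/input barcode fold change was normalised to the mean of four wild-type barcodes and log2-transformed. Two biological replicates; zero-count/undetected variants carry floor values (-10 / -15), censored here. Barcode uncoupling by PCR recombination adds noise.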

[2] = variants of: B1; assay: relative integration efficiency (T-RL orientation) vs wild-type transposon end (log2 (normalized fold change)); transposon end mutated: left end; higher = more efficient transposition; settings: with VchCAST RNA-guided transposition machinery (E. coli BL21(DE3) host, lacZ target)
Protocol: as §1

Row | Variant | relative integration efficiency (log2) [1] | relative integration efficiency (log2) [2]
1 | TA G24A T30A T76A T78G C87A A96C T110A T113A | 0.291 ± 0.89 | 0.0775 ± 0.15
2 | CG A40T T41A T42A T43A | 0.256 ± 0.21 | 0.0403 ± 0.12
3 | TG A16C G24T T30A A70C T76A T86G | 0.235 ± 0.55 | 0.0267 ± 0.24
4 | TA T76A T78A T84A C87A A102T T111C T113C | -0.0132 ± 0.72 | 0.244 ± 0.16
5 | CG A23T G24C T25A G26C | -2.69 ± 1.5 | -2.6 ± 0.78
6 | CA G24A T30A T104G T113A | -0.317 ± 0.27 | -0.387 ± 0.13
7 | CG A1C A2C T3G G4T T5G | -0.299 ± 0.17 | -0.197 ± 0.14
8 | TG A23G G24T A33T T76A T78A T84A C87A | 0.325 ± 0.22 | 0.0428 ± 0.34
9 | TA G24A T30A A70C T76A T84A C87A T104G T113A | 0.182 ± 0.22 | 0.0306 ± 0.22
10 | CG A33T A34T T35A A36T | 0.405 ± 0.42 | 0.295 ± 0.092
11 | CG A16T C17G | -0.34 ± 0.47 | -0.0955 ± 0.095
12 | CG A40C T41G | 0.224 ± 0.022 | -0.0298 ± 0.00035
13 | CG A16C C17A C18A A19C | -3.65 ± 3.1 | -2.24 ± 0.77
14 | TG A16C G24T T32G A33C T76A A77G C87T | -0.184 ± 0.15 | -0.603 ± 0.47
15 | CG A16C G24T T32G A33C | -0.475 ± 0.83 | -0.332 ± 0.18
16 | CC A102T T104A T105A | -0.708 ± 0.07 | -0.322 ± 0.48
17 | TA G24A T30A A70C T76A T84A C87A A102T T111C T113C | -0.133 ± 0.92 | -0.0645 ± 0.27
18 | TA T76A T78A T84A C87A T104A T110A T113A | 0.357 ± 0.48 | 0.0146 ± 0.17
19 | CG A36G A65G A66C | -0.205 ± 0.26 | -0.491 ± 0.18

Row | Variant | relative integration efficiency (log2) [1] | relative integration efficiency (log2) [2]
20 | CC A23T A77T | 0.131 ± 0.37 | -0.225 ± 0.1
21 | TG A16C G24T T30A T76A T78A T84A C87A | 0.0694 ± 0.32 | 0.372 ± 0.36
22 | CG A1C A2G T3C G4C T5G | -0.385 ± 0.32 | -0.219 ± 0.027
23 | CG A34C T35C A36G T38C A40G T42C A44G A62G A65G A66C | -0.6091 ± 0.0048 | -0.635 ± 0.3
24 | TA G24A T30A A70C T76A T84A C87A T104A T110A T113A | -0.0484 ± 0.45 | -0.389 ± 0.28
25 | TG A16C G24T T30A A70C T76A T84A C87A | -0.916 ± 0.88 | -0.362 ± 0.11
26 | CA G24A T30A T104A T110A T113A | -0.0948 ± 0.19 | -0.387 ± 0.2
27 | CG A15C | 0.321 ± 0.27 | 0.0839 ± 0.1
28 | CG A15G | -0.118 ± 0.26 | -0.121 ± 0.26
29 | CG A15T | 0.37 ± 0.27 | -0.148 ± 0.14
30 | CC T104A | -0.472 ± 0.64 | -0.478 ± 0.0072
31 | CG A15C A16C C17A C18A | -2.02 ± 1.9 | -1.89 ± 0.66
32 | CG A27C T28G A29C T30G | -2.34 ± 1.1 | -2.43 ± 0.93
33 | CC A102T | 0.202 ± 0.2 | -0.155 ± 0.12
34 | CG A27C A81C A107C | -1.49 ± 1.6 | -1.32 ± 0.78
35 | CG A21C A22C A23C G24T | -0.914 ± 0.79 | -1.03 ± 0.74
36 | CG A15C A16C | -0.641 ± 0.48 | 0.081 ± 0.27
37 | CC A22T A23T G24C T25A T76A A77T T78A T79A A102T T104A T105A | -2.83 ± 0.82 | -3 ± 1.3
38 | CG A34C | 0.459 ± 0.34 | 0.215 ± 0.064

Row | Variant | relative integration efficiency (log2) [1] | relative integration efficiency (log2) [2]
39 | CG A34T | 0.848 ± 0.42 | 0.709 ± 0.11
40 | CG A34G | -0.187 ± 0.0028 | -0.0204 ± 0.046
41 | CC A22T A23T T76A A77T A102T | -0.252 ± 0.23 | -0.313 ± 0.27
42 | CG A37T T38A | 0.156 ± 0.25 | 0.191 ± 0.1
43 | CG A34T T35A | 0.192 ± 0.25 | 0.209 ± 0.033
44 | CG A19T T20A | -0.844 ± 0.51 | -1.12 ± 0.56
45 | CG A16C C17A | -0.804 ± 0.72 | -0.728 ± 0.41
46 | TA T76A T78G C87A A102T T111C T113C | -0.0555 ± 0.34 | -0.0993 ± 0.033
47 | CG A11C T12G | -1.34 ± 0.53 | -0.436 ± 0.26
48 | CG A22G | -1.1 ± 1.1 | -0.733 ± 0.88
49 | CG A22C | -1.26 ± 0.71 | -1.07 ± 0.48
50 | CG A22T | 0.128 ± 0.29 | 0.0984 ± 0.17
51 | TG A23G G24T A33T A70C T76A T84A C87A | 0.473 ± 0.22 | 0.022 ± 0.35
52 | CG A34C T35C A36G T38C A40G T42C A44G T45C A46C A62G A65G A66C | -1.11 ± 0.2 | -1.33 ± 0.56
53 | CG A40T T41A | -0.491 ± 0.97 | -0.0047 ± 0.075
54 | CG A19T A73T A99T | -2.5 ± 0.48 | -2.22 ± 0.88
55 | CG A15T A16T C17G C18G | -0.912 ± 0.078 | -0.824 ± 0.58
56 | CG A23G G24T A33T | 0.0764 ± 0.17 | -0.108 ± 0.099
57 | CG A27T | -1.01 ± 1.3 | -0.545 ± 0.55

— the supplement of paper PMC10201428
